Laboratory results: patent publication US20260242735A1 (UNIVERSIT T BASEL, published 2026)

B1: Refmab #2 (antibody, V domains shown)
VH: QVQLVQSGAEVKKPGSSVKVSCKASGGTFSDYAISWVRQAPGQGLEWMGRIIPILGVADYAQKFQGRVTITADKSTRTAYMELSSLRSEDTAVYYCARNWADAFDIWGQGTMVTVSS
VL: DIQLTQSPSSLSASVGDRVTITCRASQGISSVLAWYQQKPGKAPKLLIYDASSLESGVPSRFSGSGSGTDFTLTISSLQPEDFATYYCQQFDSSITFGQGTKLEIK
notes: Full-length format is human IgG1 Fc silent (PG-LALA); The alanine scan used IgG or Fab
B2: Refmab #2 (antibody, human IgG1, V domains shown)
VH: B1 VH
VL: B1 VL
notes: Tested in IgG format; human IgG1 Fc silent (PG-LALA)
B3: Refmab #1 (antibody, V domains shown)
VH: EVQLVQSGAEVKKPGSSVKVSCKASGYTITDSNIHWVRQAPGQSLEWIGYIYPYNGGTDYNQKFKNRATLTVDNPTNTAYMELSSLRSEDTAFYYCVNGNPWLAYWGQGTLVTVSS
VL: DIQLTQSPSTLSASVGDRVTITCRASESLDNYGIRFLTWFQQKPGKAPKLLMYAASNQGSGVPSRFSGSGSGTEFTLTISSLQPDDFATYYCQQTKEVPWSFGQGTKVEVK
notes: Full-length format is human IgG1 (Absolute Antibody Ab00283-10.0); The alanine scan used IgG or Fab; also called hP67.6
B4: Refmab #1 (antibody, human IgG1, V domains shown)
VH: B3 VH
VL: B3 VL
notes: Tested in IgG format; human IgG1 (Absolute Antibody hP67.6, Cat. No. Ab00283-10.0); also called hP67.6
B5: Refmab #4 (antibody, V domains shown)
VH: QVQLVQSGAEVKKPGESVKVSCKASGYTFTNYGMNWVKQAPGQGLEWMGWINTYTGEPTYADKFQGRVTMTTDTSTSTAYMEIRNLGGDDTAVYYCARWSWSDGYYVYFDYWGQGTSVTVSS
VL: DIVMTQSPDSLTVSLGERTTINCKSSQSVLDSSTNKNSLAWYQQKPGQPPKLLLSWASTRESGIPDRFSGSGSGTDFTLTIDSPQPEDSATYYCQQSAHFPITFGQGTRLEIK
notes: as for B1
B6: Refmab #3 (antibody, V domains shown)
VH: QVQLVQSGAEVKKPGSSVKVSCKASGYTFTDYNMHWVRQAPGQGLEWIGYIYPYNGGTGYNQKFKSKATITADESTNTAYMELSSLRSEDTAVYYCARGRPAMDYWGQGTLVTVSS
VL: DIQMTQSPSSLSASVGDRVTITCRASESVDNYGISFMNWFQQKPGKAPKLLIYAASNQGSGVPSRFSGSGSGTDFTLTISSLQPDDFATYYCQQSKEVPWTFGQGTKVEIK
notes: as for B1

How the values were obtained:
[1] = target: human CD33 P55A (human, UniProt P20138 18-364); test: alanine scan, flow cytometry;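 also: HEK293-T cells transiently expressing single-residue alanine mutants of CD33 (alanine swapped to serine), antibody binding read by fluorescence in duplicate, background-subtracted, expressed relative to wild-type CD33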
[2] = target: human CD33 D79A (human, UniProt P20138 18-364); test: alanine scan, flow cytometry;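 also: HEK293-T cells transiently expressing single-residue alanine mutants of CD33 (alanine swapped to serine), antibody binding read by fluorescence in duplicate, background-subtracted, expressed relative to wild-type CD33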
Sequence of human CD33 D79A (P20138 18-364 D79A limits assumed): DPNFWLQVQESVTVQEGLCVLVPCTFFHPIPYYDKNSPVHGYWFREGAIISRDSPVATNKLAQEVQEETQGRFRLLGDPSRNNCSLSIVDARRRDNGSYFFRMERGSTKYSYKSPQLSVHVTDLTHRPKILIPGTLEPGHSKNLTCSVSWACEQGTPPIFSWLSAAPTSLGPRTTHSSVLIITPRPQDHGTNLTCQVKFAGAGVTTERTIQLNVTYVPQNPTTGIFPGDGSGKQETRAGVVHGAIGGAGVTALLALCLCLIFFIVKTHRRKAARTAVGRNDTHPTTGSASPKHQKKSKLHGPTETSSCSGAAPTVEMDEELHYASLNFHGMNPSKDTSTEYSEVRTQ

[3] = target: human CD33 V39A (human, UniProt P20138 18-364); test: alanine scan, flow cytometry;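 also: HEK293-T cells transiently expressing single-residue alanine mutants of CD33 (alanine swapped to serine), antibody binding read by fluorescence in duplicate, background-subtracted, expressed relative to wild-type CD33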
Sequence of human CD33 V39A (P20138 18-364 V39A limits assumed): as the sequence (P20138 18-364 D79A limits assumed) above, with V22A, A62D counted along it

[4] = target: human CD33 G58A (human, UniProt P20138 18-364); test: alanine scan, flow cytometry;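 also: HEK293-T cells transiently expressing single-residue alanine mutants of CD33 (alanine swapped to serine), antibody binding read by fluorescence in duplicate, background-subtracted, expressed relative to wild-type CD33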
[5] = target: human CD33 R91A (human, UniProt P20138 18-364); test: alanine scan, flow cytometry
Sequence of human CD33 R91A (P20138 18-364 R91A limits assumed): as the sequence (P20138 18-364 D79A limits assumed) above, with A62D, R74A counted along it

[6] = target: human CD33 F61A (human, UniProt P20138 18-364); test: alanine scan, flow cytometry
Sequence of human CD33 F61A (P20138 18-364 F61A limits assumed): as the sequence (P20138 18-364 D79A limits assumed) above, with F44A, A62D counted along it

[7] = target: human CD33 N20A (human, UniProt P20138 18-364); test: alanine scan, flow cytometry
[8] = target: human CD33 R62A (human, UniProt P20138 18-364); test: alanine scan, flow cytometry
Sequence of human CD33 R62A (P20138 18-364 R62A limits assumed): as the sequence (P20138 18-364 D79A limits assumed) above, with R45A, A62D counted along it

[9] = target: human CD33 V29A (human, UniProt P20138 18-364); test: alanine scan, flow cytometry
[10] = target: human CD33 I67A (human, UniProt P20138 18-364); test: alanine scan, flow cytometry
[11] = target: human CD33 P19A (human, UniProt P20138 18-364); test: alanine scan, flow cytometry
[12] = target: human CD33 N53A (human, UniProt P20138 18-364); test: alanine scan, flow cytometry
Sequence of human CD33 N53A (P20138 18-364 N53A limits assumed): as the sequence (P20138 18-364 D79A limits assumed) above, with N36A, A62D counted along it

[13] = target: human CD33 K52A (human, UniProt P20138 18-364); test: alanine scan, flow cytometry
Sequence of human CD33 K52A (P20138 18-364 K52A limits assumed): as the sequence (P20138 18-364 D79A limits assumed) above, with K35A, A62D counted along it

[14] = target: human CD33 L35A (human, UniProt P20138 18-364); test: alanine scan, flow cytometry
Sequence of human CD33 L35A (P20138 18-364 L35A limits assumed): as the sequence (P20138 18-364 D79A limits assumed) above, with L18A, A62D counted along it

[15] = target: human CD33 S71A (human, UniProt P20138 18-364); test: alanine scan, flow cytometry
Sequence of human CD33 S71A (P20138 18-364 S71A limits assumed): as the sequence (P20138 18-364 D79A limits assumed) above, with S54A, A62D counted along it

[16] = target: human CD33 R89A (human, UniProt P20138 18-364); test: alanine scan, flow cytometry
[17] = target: human CD33 T30A (human, UniProt P20138 18-364); test: alanine scan, flow cytometry
[18] = target: human CD33 Y50A (human, UniProt P20138 18-364); test: alanine scan, flow cytometry
Sequence of human CD33 Y50A (P20138 18-364 Y50A limits assumed): as the sequence (P20138 18-364 D79A limits assumed) above, with Y33A, A62D counted along it

[19] = target: human CD33 W60A (human, UniProt P20138 18-364); test: alanine scan, flow cytometry
Sequence of human CD33 W60A (P20138 18-364 W60A limits assumed): as the sequence (P20138 18-364 D79A limits assumed) above, with W43A, A62D counted along it

[20] = target: human CD33 T86A (human, UniProt P20138 18-364); test: alanine scan, flow cytometry
Sequence of human CD33 T86A (P20138 18-364 T86A limits assumed): as the sequence (P20138 18-364 D79A limits assumed) above, with A62D, T69A counted along it

[21] = target: human CD33 P48A (human, UniProt P20138 18-364); test: alanine scan, flow cytometry
[22] = target: human CD33 G64A (human, UniProt P20138 18-364); test: alanine scan, flow cytometry
Sequence of human CD33 G64A (P20138 18-364 G64A limits assumed): as the sequence (P20138 18-364 D79A limits assumed) above, with G47A, A62D counted along it

[23] = target: human CD33 E81A (human, UniProt P20138 18-364); test: alanine scan, flow cytometry
Sequence of human CD33 E81A (P20138 18-364 E81A limits assumed): as the sequence (P20138 18-364 D79A limits assumed) above, with A62D, E64A counted along it

[24] = target: human CD33 A74S (human, UniProt P20138 18-364); test: alanine scan, flow cytometry
[25] = target: human CD33 variant Y127H (human, UniProt P20138 18-364); test: flow cytometry, IgG on cells expressing the mutant
[26] = target: human CD33 variant Y50V (human, UniProt P20138 18-364); test: flow cytometry, IgG on cells expressing the mutant
[27] = target: human CD33 variant Y49H (human, UniProt P20138 18-364); test: flow cytometry, IgG on cells expressing the mutant
[28] = target: human CD33 variant P48S (human, UniProt P20138 18-364); test: flow cytometry, IgG on cells expressing the mutant
[29] = target: human CD33 variant K52I (human, UniProt P20138 18-364); test: flow cytometry, IgG on cells expressing the mutant
[30] = target: human CD33 variant P48Y (human, UniProt P20138 18-364); test: flow cytometry, IgG on cells expressing the mutant
[31] = target: human CD33 variant Y127E (human, UniProt P20138 18-364); test: flow cytometry, IgG on cells expressing the mutant
[32] = target: human CD33 variant P48N (human, UniProt P20138 18-364); test: flow cytometry, IgG on cells expressing the mutant
[33] = target: human CD33 variant Y50S (human, UniProt P20138 18-364); test: flow cytometry, IgG on cells expressing the mutant
[34] = target: human CD33 variant P48F (human, UniProt P20138 18-364); test: flow cytometry, IgG on cells expressing the mutant
[35] = target: human CD33 variant D51Y (human, UniProt P20138 18-364); test: flow cytometry, IgG on cells expressing the mutant
[36] = target: human CD33 variant Y49L (human, UniProt P20138 18-364); test: flow cytometry, IgG on cells expressing the mutant
[37] = target: human CD33 variant Y49I (human, UniProt P20138 18-364); test: flow cytometry, IgG on cells expressing the mutant
[38] = target: human CD33 variant I47Y (human, UniProt P20138 18-364); test: flow cytometry, IgG on cells expressing the mutant
[39] = target: human CD33 variant D51K (human, UniProt P20138 18-364); test: flow cytometry, IgG on cells expressing the mutant

Binder	Mean % WT Binding [1] [% WT]	Mean % WT Binding [2] [% WT]	Mean % WT Binding [3] [% WT]	Mean % WT Binding [4] [% WT]	Mean % WT Binding [5] [% WT]	Mean % WT Binding [6] [% WT]	Mean % WT Binding [7] [% WT]	Mean % WT Binding [8] [% WT]	Mean % WT Binding [9] [% WT]	Mean % WT Binding [10] [% WT]	Mean % WT Binding [11] [% WT]	Mean % WT Binding [12] [% WT]	Mean % WT Binding [13] [% WT]	Mean % WT Binding [14] [% WT]	Mean % WT Binding [15] [% WT]	Mean % WT Binding [16] [% WT]	Mean % WT Binding [17] [% WT]	Mean % WT Binding [18] [% WT]	Mean % WT Binding [19] [% WT]	Mean % WT Binding [20] [% WT]	other results
B1	120	102	111	118	119	135	121	124	100	122	111	96	94.9	119	112	98.7	92.1	141	2.8	113	Mean % WT Binding [21]: 109 % WT; Mean % WT Binding [22]: 114 % WT; Mean % WT Binding [23]: 107 % WT; Mean % WT Binding [24]: 91.7 % WT
B2																					Mean % WT Binding [25]: 114 % of WT; Mean % WT Binding [26]: 126 % of WT; Mean % WT Binding [27]: 17.2 % of WT; Mean % WT Binding [28]: 92.1 % of WT; Mean % WT Binding [29]: 86.8 % of WT; Mean % WT Binding [30]: 21.6 % of WT; Mean % WT Binding [31]: 105 % of WT; Mean % WT Binding [32]: 95.2 % of WT; Mean % WT Binding [33]: 123 % of WT; Mean % WT Binding [34]: 68.7 % of WT; Mean % WT Binding [35]: 69.8 % of WT; Mean % WT Binding [36]: 108 % of WT; Mean % WT Binding [37]: 94.3 % of WT; Mean % WT Binding [38]: 1.4 % of WT; Mean % WT Binding [39]: 2.7 % of WT
B3	98.8	88.1	80	77.4	82	95	1.2	121	102	98.1	80.8	94.7	84.2	89.1	108	77.6	89.3	86	0.7	79.1	Mean % WT Binding [21]: 86.2 % WT; Mean % WT Binding [22]: 90.6 % WT; Mean % WT Binding [23]: 83 % WT; Mean % WT Binding [24]: 83.7 % WT
B4																					Mean % WT Binding [25]: 97.1 % of WT; Mean % WT Binding [26]: 94.9 % of WT; Mean % WT Binding [27]: 89.1 % of WT; Mean % WT Binding [28]: 97.5 % of WT; Mean % WT Binding [29]: 89.2 % of WT; Mean % WT Binding [30]: 99.5 % of WT; Mean % WT Binding [31]: 79.2 % of WT; Mean % WT Binding [32]: 100 % of WT; Mean % WT Binding [33]: 101 % of WT; Mean % WT Binding [34]: 94.6 % of WT; Mean % WT Binding [35]: 94.4 % of WT; Mean % WT Binding [36]: 100 % of WT; Mean % WT Binding [37]: 109 % of WT; Mean % WT Binding [38]: 110 % of WT; Mean % WT Binding [39]: 90.7 % of WT
B5	95.4	74.5	58.4	62.2	100	131	158	104	84.4	67.2	20.4	69	9.8	94.5	99.4	71.6	104	3.5	1	103	Mean % WT Binding [21]: 8.4 % WT; Mean % WT Binding [22]: 93.9 % WT; Mean % WT Binding [23]: 90.6 % WT; Mean % WT Binding [24]: 72.5 % WT
B6	142	105	122	87.4	150	304	34.9	91.8	115	142	75.2	116	80.3	102	118	126	104	109	28.3	112	Mean % WT Binding [21]: 167 % WT; Mean % WT Binding [22]: 96.6 % WT; Mean % WT Binding [23]: 114 % WT; Mean % WT Binding [24]: 115 % WT
